The experiment concerns the target T1, VTN (vitronectin) (Homo sapiens (Human), UniProt P04004).
T1 chain: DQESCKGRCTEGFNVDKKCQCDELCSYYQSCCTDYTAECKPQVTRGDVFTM
The experiment can be described thus: SPR; Mg2+/Ca2+/Mn2+ buffer, 37 °C 1 mM MgCl2, 1 mM CaCl2, 2 mM MnCl2 in SPR buffer. (SPR reads the build-up and loss of mass on a sensor chip optically.)

This passage reports Kd results from PMC9800282 (2022).

As usually defined, the Kd is the free concentration of one partner at which half of the binding sites on the other are occupied at equilibrium, for simple one-to-one binding.

B1: integrin αvβ3 (rhαvβ3) (protein)
chain 1: FNLDVDSPAEYSGPEGSYFGFAVDFFVPSASSRMFLLVGAPKANTTQPGIVEGGQVLKCDWSSTRRCQPIEFDATGNRDYAKDDPLEFKSHQWFGASVRSKQDKILACAPLYHWRTEMKQEREPVGTCFLQDGTKTVEYAPCRSQDIDADGQGFCQGGFSIDFTKADRVLLGGPGSFYWQGQLISDQVAEIVSKYDPNVYSIKYNNQLATRTAQAIFDDSYLGYSVAVGDFNGDGIDDFVSGVPRAARTLGMVYIYDGKNMSSLYNFTGEQMAAYFGFSVAATDINGDDYADVFIGAPLFMDRGSDGKLQEVGQVSVSLQRASGDFQTTKLNGFEVFARFGSAIAPLGDLDQDGFNDIAIAAPYGGEDKKGIVYIFNGRSTGLNAVPSQILEGQWAARSMPPSFGYSMKGATDIDKNGYPDLIVGAFGVDRAILYRARPVITVNAGLEVYPS
chain 2: GPNICTTRGVSSCQQCLAVSPMCAWCSDEALPLGSPRCDLKENLLKDNCAPESIEFPVSEARVLEDRPLSDKGSGDSSQVTQVSPQRIALRLRPDDSKNFSIQVRQVEDYPVDIYYLMDLSYSMKDDLWSIQNLGTKLATQMRKLTSNLRIGFGAFVDKPVSPYMYISPPEALENPCYDMKTTCLPMFGYKHVLTLTDQVTRFNEEVKKQSVSRNRDAPEGGFDAIMQATVCDEKIGWRNDASHLLVFTTDAKTHIALDGRLAGIVQPNDGQCHVGSDNHYSASTTMDYPSLGLMTEKLSQKNINLIFAVTENVVNLYQNYSELIPGTTVGVLSMDSSNVLQLIVDAYGKIRSKVELEVRDLPEELSLSFNATCLNNEVIPGLKSCMGLKIGDTVSFSIEAKVRGCPQEKEKSFTIKPVGFKDSLIVQVTFDCDCA
In turn, B1 registered a dissociation constant (Kd) of 997 nM.
